Measurements taken from paper PMC1769499.

Assays:
[1] = target: recombinant Lhcb1 protein (LHCII apoprotein reconstituted in vitro with chlorophylls and xanthophylls); assay: sucrose density gradient ultracentrifugation; in vitro trimerization of Lhcb1 reconstituted with lutein as only xanthophyll (100% lutein) plus Chl a and b; bound to Ni2+ column, washed with 0.1 mg/ml PG, 0.06% β-DM, 0.2 M NaCl, 20 mM phosphate pH 7.5, 10 mM imidazole; eluted, trimers separated from monomers on a sucrose gradient
[2] = target: recombinant Lhcb1 protein (LHCII apoprotein reconstituted in vitro with chlorophylls and xanthophylls); assay: sucrose density gradient ultracentrifugation; in vitro trimerization of Lhcb1 reconstituted with a mix of all xanthophylls (L,V,N) plus Chl a and b; bound to Ni2+ column, washed with 0.1 mg/ml PG, 0.06% β-DM, 0.2 M NaCl, 20 mM phosphate pH 7.5, 10 mM imidazole; eluted, trimers separated from monomers on a sucrose gradient

stoichiometry N [1]: 3
stoichiometry N [2]: 3
Substance: recombinant Lhcb1 protein (LHCII apoprotein reconstituted in vitro with chlorophylls and xanthophylls) (natural protein)
